This note sets out measurements from patent US20200030424A1 (INNOVATIVE CELLULAR THERAPEUTICS, published 2020).

T1: Human CD19 expressed on cell surfaces (Raji cells; CD19-K562 cells) (human, UniProt P15391 20-556)
T1 construct: whole, on cells; also called antigen CD19; human CD19 antigen
T1 sequence (looked up): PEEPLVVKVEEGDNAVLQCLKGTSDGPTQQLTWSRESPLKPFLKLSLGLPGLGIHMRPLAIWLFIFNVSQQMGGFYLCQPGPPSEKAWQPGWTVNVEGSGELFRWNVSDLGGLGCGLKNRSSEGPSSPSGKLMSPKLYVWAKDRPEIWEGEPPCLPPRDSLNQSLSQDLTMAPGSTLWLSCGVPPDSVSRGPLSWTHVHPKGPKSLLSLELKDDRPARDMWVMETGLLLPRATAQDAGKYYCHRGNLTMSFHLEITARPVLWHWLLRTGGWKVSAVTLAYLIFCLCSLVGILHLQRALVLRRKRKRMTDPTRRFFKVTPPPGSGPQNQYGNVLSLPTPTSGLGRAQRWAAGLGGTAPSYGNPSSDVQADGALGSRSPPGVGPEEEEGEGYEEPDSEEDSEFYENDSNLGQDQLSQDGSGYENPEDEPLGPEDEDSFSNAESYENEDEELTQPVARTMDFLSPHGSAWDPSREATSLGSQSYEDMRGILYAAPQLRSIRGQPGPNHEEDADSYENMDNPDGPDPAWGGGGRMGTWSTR

B1: h2FMC63 (antibody, V domains shown)
VH: EVQLVESGGGLVQPGGSLRLSCAASGVSLPDYGVSWVRQAPGKGLEWVSVIWGSETTYYNSALKSRFTISRDNAKNSLYLQMNSLRAEDTAVYYCAKHYYYGGSYAMDYWGQGTLVTVSS
VL: DIQMTQTTSSLSASLGDRVTISCRASQDISKYLNWYQQKPDGTVKLLIYHTSRLHSGVPSRFSGSGSGTDYSLTISNLEQEDIATYFCQQGNTLPYTFGGGTKLEIK
notes: Humanized heavy chain h2FMC63VH in pTSEG1n-S (human heavy constant); also called third version of a humanized antibody
B2: hFMC63 (antibody, V domains shown)
VH: QVQLQESGPGLVKPSETLSLTCTVSGVSLPDYGWSWIRQPPGKGLEWIGRIWGSETTYYNPSLKSRVTISVDTSKNQFSLKLSSVTAADTAVYYCAKHYYYGGSYAMDYWGQGTLVTVSS
VL: DIQMTQTTSSLSASLGDRVTISCRASQDISKYLNWYQQKPDGTVKLLIYHTSRLHSGVPSRFSGSGSGTDYSLTISNLEQEDIATYFCQQGNTLPYTFGGGTKLEIK
notes: Humanized heavy chain hFMC63VH in pTSEG1n-S (human heavy constant)
B3: h1FMC63 (antibody, V domains shown)
VH: QVQLQESGPGLVKPSETLSLTCTVSGVSLPDYGVSWIRQPPGKGLEWIGVIWGSETTYYNSALKSRVTISVDTSKNQFSLKLSSVTAADTAVYYCAKHYYYGGSYAMDYWGQGTLVTVSS
VL: DIQMTQTTSSLSASLGDRVTISCRASQDISKYLNWYQQKPDGTVKLLIYHTSRLHSGVPSRFSGSGSGTDYSLTISNLEQEDIATYFCQQGNTLPYTFGGGTKLEIK
notes: Humanized heavy chain h1FMC63VH in pTSEG1n-S (human heavy constant)
B4: h2FMC63VH + L5F3 (antibody, V domains shown)
VH: EVQLVESGGGLVQPGGSLRLSCAASGVSLPDYGVSWVRQAPGKGLEWVSVIWGSETTYYNSALKSRFTISRDNAKNSLYLQMNSLRAEDTAVYYCAKHYYYGGSYAMDYWGQGTLVTVSS
VL: SYELTQPPSVSVAPGQTARITCGGNNLGDNSARWYQQKPGQAPVLVIYGNSNRPSGIPERFSGSNSGNTATLTISGTQAEDEADYYCQVTDTRSTSVVFGGGTKLTVL
notes: Humanized monoclonal antibody transiently expressed in HEK293 cells, with heavy chain from pTSEG1n-h2FMC63VH; also called L5F3 (humanized antibody)
B5: h2FMC63VH + L2D8 (antibody, V domains shown)
VH: EVQLVESGGGLVQPGGSLRLSCAASGVSLPDYGVSWVRQAPGKGLEWVSVIWGSETTYYNSALKSRFTISRDNAKNSLYLQMNSLRAEDTAVYYCAKHYYYGGSYAMDYWGQGTLVTVSS
VL: DIQMTQSPSSLSASVGDRVTITCRASQSVGSFLAWYQQKPGKAPKLLIYGASSRESGVPSRFSGSGSGTDFTLTISSLQPEDFATYYCQQTYHNPETFGQGTKVEIK
notes: Humanized monoclonal antibody transiently expressed in HEK293 cells, with heavy chain from pTSEG1n-h2FMC63VH; also called L2D8 (humanized antibody)
B6: h2FMC63VH + L2D12 (antibody, V domains shown)
VH: EVQLVESGGGLVQPGGSLRLSCAASGVSLPDYGVSWVRQAPGKGLEWVSVIWGSETTYYNSALKSRFTISRDNAKNSLYLQMNSLRAEDTAVYYCAKHYYYGGSYAMDYWGQGTLVTVSS
VL: SYELTQPPSVSVAPGQTARITCGGNDLRAQYVHWYQQKPGQAPVLVMYDDSKRPSGIPERFSGSNSGNTATLTISGTQAEDEADYYCQSWDRTSEPKVFGGGTKLTVL
notes: Humanized monoclonal antibody transiently expressed in HEK293 cells, with heavy chain from pTSEG1n-h2FMC63VH; also called L2D12 (humanized antibody)

One assay has as its target T1, Human CD19 expressed on cell surfaces …. Briefly: flow cytometry on Raji cells. Here is the method:
Raji cell is a strain derived from human B lymphoma cell line. Raji cells were purchased from Chinese Academy of Medical Sciences, Institute of Basic Medical Cell Resource Center. The surface of Raji cells expresses antigen CD19, and the anti-CD19 antibody can be used to analyze the binding capacity of recombinant humanized monoclonal antibodies. By flow cytometry (IFA), binding abilities of the four recombinant humanized antibodies were analyzed.
On to B1, for which the “MFI (GeoMean)” value came to 330. As to B2, the “MFI (GeoMean)” value worked out at 67. Turning to B3, the “MFI (GeoMean)” value is 186.

Another assay shares this target. Briefly: flow cytometry on CD19-K562 cells.
For B4, the “MFI(Geo)” value was found to be 147.

Take B5: the “MFI(Geo)” value was found to be 125. Same read-out and setting: the value for B6 was 55.5.
